Measured values reported in publication PMC12605528, “A bifunctional peptide–selenium nanocomposite for lysosomal degradation of PD-L1 and enhanced cancer immunotherapy” (Frontiers in Immunology, 2025).

Columns and labels:
[1] = target: T1, HSC70 (Homo sapiens, UniProt P11142); test: ITC; MicroCal iTC200, 25 °C, PBS pH 7.4; peptide at 500 μM in the syringe, PD-L1 or HSC70 at 2.5 μM in the sample chamber; 20 injections of 2 μL
Target sequence in this assay (P11142 whole entry): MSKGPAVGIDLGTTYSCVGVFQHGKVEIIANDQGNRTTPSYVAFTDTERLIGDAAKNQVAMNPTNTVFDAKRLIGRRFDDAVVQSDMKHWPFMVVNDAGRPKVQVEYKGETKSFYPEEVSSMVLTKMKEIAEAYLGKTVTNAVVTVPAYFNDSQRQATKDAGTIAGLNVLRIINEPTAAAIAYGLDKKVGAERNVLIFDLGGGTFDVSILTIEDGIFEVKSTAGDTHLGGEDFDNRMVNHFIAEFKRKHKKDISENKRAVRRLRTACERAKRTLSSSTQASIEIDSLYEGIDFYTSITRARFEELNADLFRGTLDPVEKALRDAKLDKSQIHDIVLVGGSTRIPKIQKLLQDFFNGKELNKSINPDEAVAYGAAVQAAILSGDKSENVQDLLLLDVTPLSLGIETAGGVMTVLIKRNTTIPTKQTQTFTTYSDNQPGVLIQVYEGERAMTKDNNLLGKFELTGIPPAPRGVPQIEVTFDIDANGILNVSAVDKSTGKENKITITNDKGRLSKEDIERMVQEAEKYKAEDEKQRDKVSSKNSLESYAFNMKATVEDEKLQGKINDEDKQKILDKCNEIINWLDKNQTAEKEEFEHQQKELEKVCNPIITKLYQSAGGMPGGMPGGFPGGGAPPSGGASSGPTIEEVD

[2] = target: T2, PD-L1 (Homo sapiens, UniProt Q9NZQ7); test: as above
Target sequence in this assay (Q9NZQ7 19-290): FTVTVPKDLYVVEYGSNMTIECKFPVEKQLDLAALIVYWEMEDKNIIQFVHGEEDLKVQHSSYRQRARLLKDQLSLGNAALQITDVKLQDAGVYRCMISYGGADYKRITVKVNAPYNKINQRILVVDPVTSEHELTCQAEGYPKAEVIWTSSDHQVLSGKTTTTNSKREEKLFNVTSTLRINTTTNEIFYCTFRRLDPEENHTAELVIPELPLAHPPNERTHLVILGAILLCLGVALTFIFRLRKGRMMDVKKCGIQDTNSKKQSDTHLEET

[3] = target: T2, PD-L1; test: Isothermal titration calorimetry (ITC), binding to PD-L1; conditions: 25 °C, PBS pH 7.4, peptide 500 μM in syringe, protein 2.5 μM in cell, 20 injections of 2 μL
Experimental: (§1) Experiments were conducted at 25 °C on a MicroCal iTC200 isothermal titration calorimeter (GE Healthcare) in PBS buffer (pH 7.4). The titration syringe was loaded with peptide a or scrambled peptide prepared at 500 μM, while the sample chamber contained PD-L1 or HSC70 protein at 2.5 μM. The titration consisted of 20 successive injections of 2 μL each, with an equilibration interval of 120 seconds between injections. The average baseline value was calculated from data points obtained under saturation conditions. Following baseline correction, binding constants were determined using the fitting models provided in MicroCal Origin software.
Target sequence in this assay (Q9NZQ7 19-290, species assumed): as the sequence (Q9NZQ7 19-290) above

[4] = target: T1, HSC70; test: Isothermal titration calorimetry (ITC), binding to HSC70; conditions: 25 °C, PBS pH 7.4, peptide 500 μM in syringe, protein 2.5 μM in cell, 20 injections of 2 μL
Experimental: as §1
Target sequence in this assay (P11142 whole entry, species assumed): as the sequence (P11142 whole entry) above

| Kd [1] | Kd [2] | Kd, binding to PD-L1 [3] | Kd, binding to HSC70 [4] | Substance |
| --- | --- | --- | --- | --- |
| 1280 nM | 410 nM | – | – | bifunctional peptide a (CKFERQ-PEG3-nyskptdrqyhf) |
| – | – | no detectable binding | no detectable binding | fhyqrdtpksyn-PEG3-QREFKC [mutant peptide with scrambled sequences] |
